Test results published in PMC11476691, “ATM1, an essential conserved transporter in Apicomplexa, bridges mitochondrial and cytosolic [Fe-S] biogenesis” (PLOS Pathogens, 2024).

Key:
PfIscU = target: T1, PfIscU (Plasmodium falciparum, UniProt Q8IKT4); assay: chemical reconstitution, cluster donor assay, UV-VIS; format: binding; settings: anaerobic, 25 mM Tris-Cl pH 7.5, 100 mM NaCl
T1 construct: gene IscU; GST fusion from pGEX-KG in E. coli BL21(DE3), GST removed by thrombin
T1 sequence (Q8IKT4 1-162): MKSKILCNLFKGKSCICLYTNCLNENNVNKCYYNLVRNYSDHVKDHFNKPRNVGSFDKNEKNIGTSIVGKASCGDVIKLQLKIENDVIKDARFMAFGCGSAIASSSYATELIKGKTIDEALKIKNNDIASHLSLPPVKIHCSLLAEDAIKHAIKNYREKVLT

PfIscA2 = target: T2, PfIscA2 (Plasmodium falciparum, UniProt O97297); assay: as above; format: binding; settings: anaerobic, 25 mM Tris-Cl pH 7.5, 100 mM NaCl
T2 construct: gene IscA2; GST fusion from pGEX-KG in E. coli C43, GST removed by thrombin
T2 sequence (O97297 1-404): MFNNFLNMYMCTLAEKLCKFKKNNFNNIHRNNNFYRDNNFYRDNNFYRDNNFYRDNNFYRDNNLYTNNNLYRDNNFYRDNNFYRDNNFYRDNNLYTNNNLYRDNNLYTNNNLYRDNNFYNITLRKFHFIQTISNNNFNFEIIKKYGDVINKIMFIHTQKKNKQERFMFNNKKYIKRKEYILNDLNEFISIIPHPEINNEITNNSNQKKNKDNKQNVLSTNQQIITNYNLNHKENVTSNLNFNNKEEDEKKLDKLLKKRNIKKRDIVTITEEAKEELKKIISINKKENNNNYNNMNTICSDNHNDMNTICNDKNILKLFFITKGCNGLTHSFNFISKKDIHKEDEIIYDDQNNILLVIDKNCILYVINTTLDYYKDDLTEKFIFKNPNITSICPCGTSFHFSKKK

PfATM1-CTD = target: T3, PfATM1-CTD (Plasmodium falciparum, UniProt Q8IDH9); assay: UV-VIS spectroscopy; format: binding; settings: as purified; lower intensity than full length
T3 construct: gene ABCB6
T3 sequence (Q8IDH9 807-1049): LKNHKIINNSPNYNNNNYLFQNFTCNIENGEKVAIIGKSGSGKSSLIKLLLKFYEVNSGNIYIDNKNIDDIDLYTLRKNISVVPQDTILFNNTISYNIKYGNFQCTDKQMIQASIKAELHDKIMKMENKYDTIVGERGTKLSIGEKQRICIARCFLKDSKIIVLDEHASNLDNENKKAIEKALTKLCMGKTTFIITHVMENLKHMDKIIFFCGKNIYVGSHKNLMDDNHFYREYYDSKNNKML

[1] = substrate: Nc1ncnc2c1ncn2[C@@H]1O[C@H](COP(=O)(O)OP(=O)(O)OP(=O)(O)O)[C@@H](O)[C@H]1O; assay: ATPase, phosphate release (EnzChek MESG/PNP); format: biochemical, Plasmodium falciparum; settings: 500 nM holo-PfATM1, increasing ATP, no GSSG
[2] = target: the molecule itself; assay: SEC + native gel or EMSA; Superdex S-200; fractions electrophoresed on 6% native-PAGE; dimer to monomers
[3] = target: the molecule itself; assay: SDS-PAGE of the purified protein; purified PfATM1-CTD on Coomassie-stained SDS-PAGE and western blot with anti-6XHis Ab; dimer of about 60 kDa beside the monomer of about 30 kDa; broken with DTT and urea

## [S]12[Fe]3[S]4[Fe]1[S]1[Fe]2[S]3[Fe]41 [[4Fe-4S]]
PfIscU
  chemical reconstitution, cluster donor assay, UV-VIS: Reconstituted PfIscU and PfIscA2 carrying [4Fe-4S] were then used as cluster donors
PfIscA2
  chemical reconstitution, cluster donor assay, UV-VIS: Reconstituted PfIscU and PfIscA2 carrying [4Fe-4S] were then used as cluster donors
PfATM1-CTD
  UV-VIS spectroscopy: A lower intensity [4Fe-4S] peak was also observed in PfATM1-CTD

B1: PfATM1 (PfABCB6 / PfMDR6) (Plasmodium falciparum 3D7) (protein)
chain: RISDEFYSSFLYHSYIENLKSTKEYVYFIYLQDIYYNINIFKNKGRLYISNNGLCNDKLKDNNNNNNINSNNFGNSYNAYTKKKSFYHSFNDLNEAKEIRKKRKNEKSEKNIVEYLLCNIINPNENYHIQNIYNHNLNNNVSIEIHKKNDSVMYHYNNEKKTKTSKMTTDIKLKQINNVYIKYVPYKNKIITLACPNKYYPTLYRYFSSHTNKKEDAEENDKNKNININNVDNRYKEDFMYGCENKNDSEKHKKTTNNNFGDEFEKLKVKELDKILNKLEMLYDNKNNKMNINVKILGYIFKNFLLKNKELKRKIFCSLFFLLCSKMAIIYTPILLSTFIENVNLQKSLSNNIDIYSTNKSSVLLLCAYVFSRVLSSTMNELRNSVFSNISQKISTFVSKLFFYKIHNLNLTYILSKKNGELSFIFNRGCKSITNLLNVMVFQIIPIIIEFILYLYILTYKIHYTVSLVTCFNMFLYVLFTTLITKRRTIIRKHMNKAEQNTFNIFLDSIQNVEQVKYYTNEIHELKKFIKEQKKYEKEAINVQKSLSFLNFGQQIILNTNLFLCMYLTYLNIANDIFPFSYLILVNTLLFQLAMPLNMFGTIYRETKLSLVDIESMIKILVKKIKSPDYGNQMLIKNGNIKFENVYFKYPLNEDINGLEQNYQAKEKDPNIINNINNINNINNINNINNINSINNIYTFESNVKNISSTNMITSSINKLKKWYLDKVKDNKKNVQYNNNDVKKTNPNITKNLNKEIKENINTHLKNHKIINNSPNYNNNNYLFQNFTCNIENGEKVAIIGKSGSGKSSLIKLLLKFYEVNSGNIYIDNKNIDDIDLYTLRKNISVVPQDTILFNNTISYNIKYGNFQCTDKQMIQASIKAELHDKIMKMENKYDTIVGERGTKLSIGEKQRICIARCFLKDSKIIVLDEHASNLDNENKKAIEKALTKLCMGKTTFIITHVMENLKHMDKIIFFCGKNIYVGSHKNLMDDNHFYREYYDSKNNKML
notes: predicted mature form aa 43-1049 (MTS removed), E. coli YbeL hydrophilic domain (beta) and 6xHis fused at both N- and C-termini (pET28a beta-PfATM1-beta), E. coli C43, 152 kDa monomer, homodimer
[1]
  Km: 178.9 ± 34.86 µM
  kcat: 0.129 ± 0.00767 s⁻¹

B2: recombinant PfATM1 (6X-His tagged β-PfATM1-β) (natural protein, P. falciparum, UniProt Q8IDH9 43-1049, looked up)
chain: RISDEFYSSFLYHSYIENLKSTKEYVYFIYLQDIYYNINIFKNKGRLYISNNGLCNDKLKDNNNNNNINSNNFGNSYNAYTKKKSFYHSFNDLNEAKEIRKKRKNEKSEKNIVEYLLCNIINPNENYHIQNIYNHNLNNNVSIEIHKKNDSVMYHYNNEKKTKTSKMTTDIKLKQINNVYIKYVPYKNKIITLACPNKYYPTLYRYFSSHTNKKEDAEENDKNKNININNVDNRYKEDFMYGCENKNDSEKHKKTTNNNFGDEFEKLKVKELDKILNKLEMLYDNKNNKMNINVKILGYIFKNFLLKNKELKRKIFCSLFFLLCSKMAIIYTPILLSTFIENVNLQKSLSNNIDIYSTNKSSVLLLCAYVFSRVLSSTMNELRNSVFSNISQKISTFVSKLFFYKIHNLNLTYILSKKNGELSFIFNRGCKSITNLLNVMVFQIIPIIIEFILYLYILTYKIHYTVSLVTCFNMFLYVLFTTLITKRRTIIRKHMNKAEQNTFNIFLDSIQNVEQVKYYTNEIHELKKFIKEQKKYEKEAINVQKSLSFLNFGQQIILNTNLFLCMYLTYLNIANDIFPFSYLILVNTLLFQLAMPLNMFGTIYRETKLSLVDIESMIKILVKKIKSPDYGNQMLIKNGNIKFENVYFKYPLNEDINGLEQNYQAKEKDPNIINNINNINNINNINNINNINSINNIYTFESNVKNISSTNMITSSINKLKKWYLDKVKDNKKNVQYNNNDVKKTNPNITKNLNKEIKENINTHLKNHKIINNSPNYNNNNYLFQNFTCNIENGEKVAIIGKSGSGKSSLIKLLLKFYEVNSGNIYIDNKNIDDIDLYTLRKNISVVPQDTILFNNTISYNIKYGNFQCTDKQMIQASIKAELHDKIMKMENKYDTIVGERGTKLSIGEKQRICIARCFLKDSKIIVLDEHASNLDNENKKAIEKALTKLCMGKTTFIITHVMENLKHMDKIIFFCGKNIYVGSHKNLMDDNHFYREYYDSKNNKML
notes: P. falciparum ATM1 (PfATM1, ABCB6, MDR6), PF3D7_1352100, predicted mature form, aa 43-1049; Monomer 152 kDa, dimer about 300 kDa with the fusion domains; also called full-length PfATM1; PfATM1 dimer; source: E. coli C43, purified from membranes (DDM and Triton X-114, Ni-NTA, SEC Superdex S-200); not shown: E. coli YbeL hydrophilic fusion domain (β), N-terminal, kept; E. coli YbeL hydrophilic …
[2]
  stoichiometry N: 2

B3: PfATM1-CTD (domain or fragment, P. falciparum, UniProt Q8IDH9 807-1049, looked up)
chain: LKNHKIINNSPNYNNNNYLFQNFTCNIENGEKVAIIGKSGSGKSSLIKLLLKFYEVNSGNIYIDNKNIDDIDLYTLRKNISVVPQDTILFNNTISYNIKYGNFQCTDKQMIQASIKAELHDKIMKMENKYDTIVGERGTKLSIGEKQRICIARCFLKDSKIIVLDEHASNLDNENKKAIEKALTKLCMGKTTFIITHVMENLKHMDKIIFFCGKNIYVGSHKNLMDDNHFYREYYDSKNNKML
notes: P. falciparum ATM1 (PfATM1, ABCB6, MDR6), PF3D7_1352100, C-terminal ATPase domain, aa 807-1049; Cloned in pET23a; About 30 kDa, with a dimeric form of about 60 kDa on SDS-PAGE; also called C-terminal ATPase domain of PfATM1; source: E. coli BL21 (DE3), purified (Ni-NTA, SEC Superdex S-75)
[3]
  stoichiometry N: 2
